Source: doi:10.1101/2024.01.08.574761 (bioRxiv, 2024)

Target: Claspin C-terminal polypeptide #18 (897-1339aa), 3x Flag, dephosphorylated with λPPase (human, UniProt Q9HAW4 897-1339, dephosphorylated with λPPase)
Experiment: native gel or EMSA

Chain of Claspin C-terminal polypeptide #18 (897-1339aa), 3x Flag, dephosphorylated with λPPase (Q9HAW4 897-1339): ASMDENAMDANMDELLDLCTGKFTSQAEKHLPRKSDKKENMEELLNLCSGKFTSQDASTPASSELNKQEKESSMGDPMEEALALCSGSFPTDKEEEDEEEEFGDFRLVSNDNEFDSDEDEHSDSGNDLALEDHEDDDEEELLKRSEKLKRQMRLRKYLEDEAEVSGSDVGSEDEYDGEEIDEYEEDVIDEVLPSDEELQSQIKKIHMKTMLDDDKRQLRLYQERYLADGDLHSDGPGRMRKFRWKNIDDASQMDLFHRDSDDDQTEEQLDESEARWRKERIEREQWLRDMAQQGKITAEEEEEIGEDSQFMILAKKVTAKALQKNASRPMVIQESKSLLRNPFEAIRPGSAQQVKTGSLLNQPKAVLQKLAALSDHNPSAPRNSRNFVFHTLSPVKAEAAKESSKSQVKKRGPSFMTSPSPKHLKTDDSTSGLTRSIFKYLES

binding result: binds
B1: Claspin N-terminal polypeptide #2 (1-350aa), dephosphorylated with λPPase (domain or fragment)
chain: MTGEVGSEVHLEINDPNVISQEEADSPSDSGQGSYETIGPLSEGDSDEEIFVSKKLKNRKVLQDSDSETEDTNASPEKTTYDSAEEENKENLYAGKNTKIKRIYKTVADSDESYMEKSLYQENLEAQVKPCLELSLQSGNSTDFTTDRKSSKKHIHDKEGTAGKAKVKSKRRLEKEERKMEKIRQLKKKETKNQEDDVEQPFNDSGCLLVDKDLFETGLEDENNSPLEDEESLESIRAAVKNKVKKHKKKEPSLESGVHSFEEGSELSKGTTRKERKAARLSKEALKQLHSETQRLIRESALNLPYHMPENKTIHDFFKRKPRPTCHGNAMALLKSSKYQSSHHKEIIDT
modifications: dephosphorylated with λPPase
